Reference: the Human Domainome abundance scans (Beltran et al. 2025)
± gives the uncertainty stated by the source.

B1: SH3 and PX domain-containing protein 2B, residues 155 to 209; numbered along this chain, A1X283 (parent)
chain: EQYVVVANYQKQESSEISLSVGQVVDIIEKNESGWWFVSTAEEQGWVPATCLEGQ
B2: WW domain-containing transcription regulator protein 1, residues 116 to 162; numbered along this chain, Q9GZV5 (parent)
chain: QSYDVTDELPLPPGWEMTFTATGQRYFLNHIEKITTWQDPRKAMNQP

Variants of: B1
Experiment: abundance fitness (aPCA) (normalised: wild type 0, dead -1); higher = more abundant; growth selection in yeast, the domain comes from the species named
Conditions: Homo sapiens

Variant	abundance fitness
E32A	0.027 ± 0.075
E1L	-0.001 ± 0.14
E1V	-0.035 ± 0.076
V25M	-0.801 ± 0.16
V25N	-0.95 ± 0.41
L52V	-0.049 ± 0.067
L52R	-0.835 ± 0.12
L52F	-0.083 ± 0.093
L52Y	-1.07 ± 0.25
W36V	0.009 ± 0.072
W36S	-0.211 ± 0.079
W36Y	-0.099 ± 0.11
W36C	-0.11 ± 0.13
W46G	-1.08 ± 0.1
W46T	-0.437 ± 0.096
S39A	-0.08 ± 0.083
S39E	0.013 ± 0.093
S39P	-0.864 ± 0.23
E43I	-0.155 ± 0.14
E43A	-0.038 ± 0.087
Q55V	-0.44 ± 0.17
Q55P	0.045 ± 0.18
Q55M	-0.233 ± 0.25
Q55S	-0.133 ± 0.12

Variant	abundance fitness
Q55Y	-0.267 ± 0.19
Q12Y	-0.313 ± 0.3
Q12H	-0.114 ± 0.19
E42Y	-0.163 ± 0.14
E13V	-0.065 ± 0.071
E13G	-0.074 ± 0.065
V4F	-0.061 ± 0.1
Q44S	-0.136 ± 0.074
Q44D	-0.14 ± 0.11
Q44Y	-0.376 ± 0.19
Q44L	-0.337 ± 0.089
Q44A	-0.187 ± 0.1
D26R	-0.103 ± 0.068
D26G	-0.126 ± 0.067
D26K	0.028 ± 0.13
V6C	-0.151 ± 0.15
V6N	-0.214 ± 0.25
V6F	-0.131 ± 0.21
V6W	-0.326 ± 0.1
V47R	-0.72 ± 0.093
V47N	-1.05 ± 0.23
V47G	-0.493 ± 0.073
Q2Y	-0.29 ± 0.39
Q2N	0.13 ± 0.25

Variant	abundance fitness
S33I	-0.393 ± 0.13
S33T	-0.086 ± 0.098
T50M	-0.243 ± 0.11
T50S	-0.046 ± 0.086
T50K	0.09 ± 0.12
Q10W	-0.334 ± 0.14
Q10C	-0.135 ± 0.17
Q10Y	-0.333 ± 0.23
N31L	-0.092 ± 0.083
P48Q	-0.568 ± 0.17
P48V	-0.79 ± 0.13
P48S	-0.544 ± 0.09
I17E	-0.99 ± 0.15
I17F	-0.597 ± 0.16
I17S	-0.576 ± 0.18
F37E	-0.237 ± 0.11
V5L	-0.919 ± 0.12
V5D	-0.999 ± 0.2
V5N	-0.946 ± 0.27
V5W	-0.938 ± 0.16
V5H	-1.08 ± 0.31
V38I	-0.319 ± 0.15
V38E	-0.76 ± 0.12
V38L	-0.736 ± 0.088

Variant	abundance fitness
V38R	-0.963 ± 0.1
V38A	-0.07 ± 0.068
G54R	-0.019 ± 0.1
G54M	-0.098 ± 0.22
G54C	-0.04 ± 0.12
I27L	-0.099 ± 0.067
I27V	0.055 ± 0.071
A49N	0.02 ± 0.17
A49W	-0.586 ± 0.24
Q23I	-0.308 ± 0.15
Q23R	-0.405 ± 0.12
Q23E	0.001 ± 0.09
S14T	-0.036 ± 0.087
S14L	0.027 ± 0.1
S14Y	-0.073 ± 0.13
G22S	-0.503 ± 0.081
G22V	-0.945 ± 0.097
G22Y	-0.498 ± 0.19
S15W	-0.049 ± 0.1
S15H	0.055 ± 0.23
S15A	-0.01 ± 0.085
E29G	-0.19 ± 0.077
E29K	0.022 ± 0.11
A7L	-0.101 ± 0.081

Variant	abundance fitness
A7D	-0.046 ± 0.14
K30Y	0.029 ± 0.28
A41F	-0.113 ± 0.15
A41I	0.045 ± 0.22
C51A	-0.12 ± 0.11
C51W	-0.596 ± 0.096
C51P	-0.959 ± 0.22
C51H	-0.322 ± 0.22
C51V	-0.107 ± 0.071
V24K	0.069 ± 0.1
V24D	-0.277 ± 0.097
V24L	-0.128 ± 0.077
V24F	-0.239 ± 0.13
N8F	-0.26 ± 0.12
N8T	0.018 ± 0.097
N8G	0.012 ± 0.054
S20V	-0.077 ± 0.079
S20W	-0.165 ± 0.12
V21Y	-0.444 ± 0.12
V21Q	-0.036 ± 0.11
V21E	0.096 ± 0.1
V21I	-0.166 ± 0.12
V21P	-0.315 ± 0.11
V21L	-0.188 ± 0.086

Variant	abundance fitness
I28F	-0.214 ± 0.12
I28Y	-0.462 ± 0.21
I28Q	-0.042 ± 0.15
E16I	-0.692 ± 0.19
E16K	-0.16 ± 0.16
E16C	-0.505 ± 0.16
Y3C	-0.349 ± 0.14
Y3I	-0.175 ± 0.13
Y3S	0.039 ± 0.093
Y3E	-0.114 ± 0.15
W35I	-0.195 ± 0.13
W35L	-0.073 ± 0.069
G34I	-0.579 ± 0.15
K11Y	-0.465 ± 0.14
K11S	-0.072 ± 0.087
K11G	-0.015 ± 0.054
K11N	-0.33 ± 0.16
T40A	-0.124 ± 0.07
T40H	-0.15 ± 0.16
T40C	-0.201 ± 0.12
T40I	-0.121 ± 0.11
T40N	-0.137 ± 0.17

Variants of: B2
Experiment: as above
Conditions: Homo sapiens

Variant	abundance fitness
G23V	-0.925 ± 0.042
G23F	-1.15 ± 0.23
E32V	-0.19 ± 0.025
E32M	0.072 ± 0.045
P12K	-0.782 ± 0.089
P12Y	-0.61 ± 0.062
P12V	-0.921 ± 0.091
Q46V	-0.018 ± 0.028
Q46C	-0.021 ± 0.027
Q46M	-0.098 ± 0.039
Q46N	-0.067 ± 0.046
Q46L	-0.022 ± 0.033
Q46S	-0.053 ± 0.041
Q46D	0.058 ± 0.043
T36C	-0.305 ± 0.052
T36F	-1.05 ± 0.28
T36S	-0.224 ± 0.044
T36I	-0.831 ± 0.088
T36A	-0.377 ± 0.04
T36Q	-0.376 ± 0.051
N29P	-1.11 ± 0.13
N29H	-0.278 ± 0.071
N29S	-0.357 ± 0.035
N29F	-1.01 ± 0.082

Variant	abundance fitness
N29L	-1.01 ± 0.035
L28I	0.044 ± 0.13
L28C	-0.16 ± 0.046
L28M	0.055 ± 0.065
T20M	-0.295 ± 0.076
T20G	-0.381 ± 0.03
T20R	-0.65 ± 0.041
W15G	-0.636 ± 0.048
W15S	-0.686 ± 0.026
W15R	-0.625 ± 0.029
W15N	-0.616 ± 0.028
W15D	-0.532 ± 0.054
P40D	-0.914 ± 0.14
P40E	-0.757 ± 0.086
P40I	-0.97 ± 0.17
P40N	-0.796 ± 0.086
K42Q	-0.105 ± 0.054
K42G	-0.141 ± 0.036
K42N	0.045 ± 0.05
K42I	-0.038 ± 0.036
T6S	-0.03 ± 0.036
T6Y	-0.189 ± 0.054
T6N	-0.198 ± 0.06
T22L	-0.192 ± 0.034

Variant	abundance fitness
T22C	-0.033 ± 0.034
T22H	-0.184 ± 0.035
T22D	0.104 ± 0.032
T22M	-0.277 ± 0.05
N45L	-0.118 ± 0.034
N45D	-0.092 ± 0.055
N45G	-0.04 ± 0.031
N45I	-0.084 ± 0.056
D7R	-0.166 ± 0.041
D7W	-0.45 ± 0.047
D7Y	-0.268 ± 0.049
D7N	-0.041 ± 0.032
A21N	0.019 ± 0.048
A21Y	-0.299 ± 0.031
A21G	-0.072 ± 0.025
A21R	-0.109 ± 0.036
A21I	-0.1 ± 0.052
M17R	-0.279 ± 0.026
M17S	-0.102 ± 0.026
M17W	-0.369 ± 0.026
T18Y	-0.086 ± 0.051
T18W	-0.245 ± 0.036
T18C	-0.009 ± 0.036
T18R	0.094 ± 0.031

Variant	abundance fitness
T18V	-0.035 ± 0.035
P47G	-0.677 ± 0.21
W37Q	-0.328 ± 0.042
W37H	-0.402 ± 0.04
W37F	-0.047 ± 0.041
W37E	-0.244 ± 0.032
T35F	-0.566 ± 0.037
T35N	-0.57 ± 0.039
T35L	-0.7 ± 0.044
T35K	-0.433 ± 0.056
T35C	-0.236 ± 0.045
K33F	-0.683 ± 0.074
K33S	-0.177 ± 0.029
K33Q	-0.139 ± 0.038
K33A	-0.209 ± 0.025
K33C	-0.198 ± 0.038
K33P	-0.942 ± 0.066
Y3Q	-0.2 ± 0.031
Q1I	0.001 ± 0.38
Q1H	-0.704 ± 0.32
Q1E	-0.182 ± 0.062
Q1A	-0.519 ± 0.15
Q1R	-0.365 ± 0.065
Q1V	-0.45 ± 0.09

Variant	abundance fitness
Q1D	-0.005 ± 0.069
Y26W	-0.587 ± 0.054
Y26S	-0.54 ± 0.042
Y26R	-0.487 ± 0.044
Y26A	-0.397 ± 0.034
Y26C	-0.566 ± 0.065
Y26F	-0.265 ± 0.06
G14R	-0.583 ± 0.036
G14P	-0.378 ± 0.043
G14M	-0.505 ± 0.026
G14I	-1 ± 0.12
G14V	-0.748 ± 0.037
G14K	-0.466 ± 0.027
F27Y	-0.027 ± 0.03
F27N	-0.859 ± 0.096
A43M	-0.038 ± 0.059
A43Q	-0.056 ± 0.051
A43S	0.01 ± 0.04
P13Y	-0.112 ± 0.051
P13G	-0.136 ± 0.025
P13M	-0.168 ± 0.04
P13I	-0.18 ± 0.05
P13N	-0.022 ± 0.052
P13A	-0.043 ± 0.032

Variant	abundance fitness
L11P	-0.556 ± 0.044
L11H	-0.676 ± 0.081
L11K	-0.746 ± 0.086
L11M	-0.07 ± 0.038
L11V	-0.381 ± 0.033
L11S	-0.609 ± 0.035
Q38V	-0.108 ± 0.036
Q38N	-0.104 ± 0.032
I34F	0.014 ± 0.026
I34A	-0.304 ± 0.031
I34H	-0.324 ± 0.059
I34G	-0.634 ± 0.029
I34N	-0.343 ± 0.063
P10Q	-0.123 ± 0.048
P10W	-0.393 ± 0.037
S2M	-0.017 ± 0.033
S2Y	-0.226 ± 0.07
S2L	-0.093 ± 0.04
S2A	-0.255 ± 0.04
S2F	-0.035 ± 0.055
D4P	-0.071 ± 0.051
D4E	-0.072 ± 0.043
F19R	-0.089 ± 0.032
F19W	-0.021 ± 0.027

Variant	abundance fitness
F19I	0.023 ± 0.065
F19Q	-0.121 ± 0.051
F19Y	-0.082 ± 0.042
F19V	-0.054 ± 0.032
H30P	-0.218 ± 0.041
H30I	-0.412 ± 0.049
H30V	-0.226 ± 0.025
H30D	-0.247 ± 0.041
H30R	-0.075 ± 0.029
H30W	-0.378 ± 0.038
H30E	-0.167 ± 0.041
H30S	-0.091 ± 0.027
H30K	-0.05 ± 0.044
D39K	-0.736 ± 0.077
D39M	-0.789 ± 0.072
D39G	-0.747 ± 0.055
M44K	-0.033 ± 0.054
M44V	-0.045 ± 0.033
M44A	0.005 ± 0.036
M44S	-0.089 ± 0.038
M44N	-0.215 ± 0.09
M44G	0.004 ± 0.029
E8V	-0.118 ± 0.035
E8N	-0.128 ± 0.056

Variant	abundance fitness
E8W	-0.78 ± 0.062
E8L	-0.253 ± 0.041
L9S	-0.003 ± 0.038
L9Q	0.022 ± 0.046
L9K	-0.064 ± 0.048
L9N	-0.009 ± 0.048
E16Y	-0.78 ± 0.13
E16Q	-0.035 ± 0.069
E16P	-0.864 ± 0.085
E16R	-0.365 ± 0.027
E16L	-0.364 ± 0.046
R41G	-0.628 ± 0.034
R41A	-0.5 ± 0.036
R41F	-0.902 ± 0.25
Q24D	0.017 ± 0.055
Q24N	-0.164 ± 0.026
Q24G	-0.286 ± 0.041
Q24V	-0.12 ± 0.036
V5K	-0.023 ± 0.038
V5I	0.029 ± 0.036
V5N	-0.033 ± 0.049
I31G	-0.273 ± 0.063
I31L	-0.375 ± 0.16
I31R	-0.06 ± 0.06
